Reference: patent US5405946A, “Recombinant protein S variants deficient in C4BP binding activity, compositions and therapeutic methods” (The Scripps Research Institute, priority 1992, dated 1995)

T1: human C4b-binding protein (C4BP) (Homo sapiens, UniProt P20851)
T1 sequence (P20851 18-252): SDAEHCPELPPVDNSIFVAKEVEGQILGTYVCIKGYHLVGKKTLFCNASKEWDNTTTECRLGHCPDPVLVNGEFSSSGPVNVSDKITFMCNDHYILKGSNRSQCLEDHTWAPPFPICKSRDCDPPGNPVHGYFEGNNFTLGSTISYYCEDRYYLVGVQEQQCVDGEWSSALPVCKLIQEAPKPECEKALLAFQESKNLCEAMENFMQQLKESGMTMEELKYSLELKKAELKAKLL
T1 sequence (P04003 49-597 partner): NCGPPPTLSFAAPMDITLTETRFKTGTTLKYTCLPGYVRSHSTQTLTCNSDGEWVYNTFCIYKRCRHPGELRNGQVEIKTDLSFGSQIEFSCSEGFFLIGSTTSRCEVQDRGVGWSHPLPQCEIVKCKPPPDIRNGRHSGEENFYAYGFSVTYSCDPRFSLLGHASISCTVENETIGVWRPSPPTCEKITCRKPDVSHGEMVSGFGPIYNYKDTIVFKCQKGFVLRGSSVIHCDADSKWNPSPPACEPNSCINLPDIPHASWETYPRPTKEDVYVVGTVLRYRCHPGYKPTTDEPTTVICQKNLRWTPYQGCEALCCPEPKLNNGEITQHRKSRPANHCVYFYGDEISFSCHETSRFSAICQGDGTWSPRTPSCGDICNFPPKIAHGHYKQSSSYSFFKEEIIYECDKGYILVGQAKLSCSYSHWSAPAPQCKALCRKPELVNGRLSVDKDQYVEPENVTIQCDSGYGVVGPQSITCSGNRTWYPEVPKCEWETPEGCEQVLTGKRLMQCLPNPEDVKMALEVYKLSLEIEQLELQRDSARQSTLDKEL


Tests used:
[1] = target: T1, human C4b-binding protein (C4BP); assay: ELISA of complex formation between recombinant PS variant proteins and C4BP; settings: first disulfide loop variants, 0-150 ng/ml, C4BP 1 ug/ml, 18 hours room temperature, calcium
Procedure: The complex formation between the recombinant PS variant proteins and C4BP was measured with a sensitive ELISA using C4BP and a peroxidase conjugated anti-PS antibody as described by Chang et al., Thromb. Haemost., 67:526-532 (1992). Briefly, IgG at a concentration of 10 ug/ml from monoclonal antibody 8C11, which is directed against the alpha chain of C4BP (Hessing et al., J. Immunol., 144:204-208 (1990)), was coated in 50 mM NaHCO3 at pH 9.6 overnight at 4C. onto polyvinyl microtiter plates (Costar, Cambridge, Mass.). After washing to remove the unbound IgGs, the wells were blocked with 1% (w/v) BSA in 50 mM Tris-HCl at pH 7.5 containing 150 mM NaCl and 5 mM CaCl2 for 1 hour at room temperature. C4BP, prepared as described by Hessing et al., supra, was allowed to bind for 2 hours with a final concentration of 1 ug/ml. Increasing amounts of recombinant PS proteins (E424K, Q427E, K429E, […] and K432E) and wild-type recombinant PS prepared in Example 1 were then added in concentrations ranging from 0-150 ng/ml and maintained for 18 hours at room temperature. Bound proteins were allowed to bind to rabbit anti-human PS IgG conjugated to peroxidase (Dakopatts, Glostrup, Denmark) at a concentration of 0.3 ug/ml for 2 hours at room temperature. After washing the wells to remove the unbound proteins, 100 ul of 0.1M sodium phosphate/0.2M sodium citrate at pH 5.0 containing 0.04% 1,2-phenylenediamine dihydrochloride and 0.015% hydrogen peroxide was added. The hydrolysis of phenylenediamine was stopped by adding 50 ul 2N sulfuric acid. The absorbance was measured at 490 nm using a Vmax plate reader (Molecular Devices Corp., Menlo Park, Calif.). The data represented the mean of duplicate determinations.
The binding of the of the thrombin domain recombinant PS variants to C4BP was determined. The complex formation between the recombinant proteins and C4BP was measured with a sensitive ELISA using anti-C4BP monoclonal antibody 8C11 lgG, purified C4BP and peroxidase conjugated anti-PS antibody as described in Example 2A.
Anti-C4BP monoclonal antibody 8C11 IgG was coated onto microtiter wells to catch C4BP (1 ug/ml). Increasing amounts (0-100 ng/ml) of recombinant PS or variants (R49L, R60L, R70I, R49L/R60L, R60L/R70I, R49L/R70I and R49L/R60L/R70I) were added. Binding to C4BP was for 18 hours at room temperature. Bound PS variants were detected with anti-PS IgG conjugated to peroxidase (0.3 ug/ml). The results are the mean of duplicate values in two different experiments.

[2] = target: activated protein C (APC) (Homo sapiens, UniProt P04070); assay: Activated partial thromboplastin time clotting assay, APC cofactor activity in PS- and C4BP-depleted plasma; assay type: biochemical; settings: final conc. 0.6 ug/ml; basal clotting 80
Procedure: An activated partial thromboplastin time clotting assay, using PS- and C4BP-depleted plasma, cephalin-kaolin reagent (Boehringer Mannhein, Indianapolis, Ind.), activated protein C (APC) and increasing amounts of recombinant PS variants was performed as described by Chang et al., Thromb. Haemost., 67:526-532 (1992). Briefly, to 50 ul PS and C4BP-depleted plasma (prepared as described by Koedam et al., J. Clin. Invest., 82:1236-1243 (1988)) was added 50 ul cephalin-kaolin reagent, 25 ul APC (Koedam et al., ibid) at 5 ug/ml and 15 to 45 ul recombinant PS variants (0-4 ug/ml) diluted in Michaelis buffer (28.5 mM sodium acetate, 28.5 mM sodium barbital and 116 mM NaCl, pH 7.35) and maintained for 3 minutes at 37C. Clotting was initiated by addition of 50 ul of 25 mM CaCl2 and the clotting time was measured in an Amelung-Coagulometer KC10.
The ability of the variants to serve as a cofactor for APC was tested in a clotting assay. The clotting assay was performed as described in Example 2D. To examine the effects of thrombin on recombinant PS variants APC cofactor activity, one ml of purified recombinant PS variants listed above and prepared in Example 1D (4-40 ug/ml) was maintained with 1/20 vol (50 ul) of thrombin-Sepharose for 1 hour at 37C. in 50 mM Tris-HCl pH 7.5 containing […]. Thrombin-Sepharose was removed by centrifugation. Supernatants containing the thrombin-treated PS were stored at -20C. until used.
The PS-dependent prolongation of the clotting time was measured in an activated partial thromboplastin time system using PS and C4BP depleted plasma, APC and cephalin-kaolin reagent as described in Example 2D. Increasing amounts of recombinant PS or the triple variant treated without or with thrombin were added. Clotting was initiated by the addition of CaCl2 and the clotting time was measured. The results are presented as the means of duplicate values.

Sequence of activated protein C (APC) (P04070 212-461 limits assumed): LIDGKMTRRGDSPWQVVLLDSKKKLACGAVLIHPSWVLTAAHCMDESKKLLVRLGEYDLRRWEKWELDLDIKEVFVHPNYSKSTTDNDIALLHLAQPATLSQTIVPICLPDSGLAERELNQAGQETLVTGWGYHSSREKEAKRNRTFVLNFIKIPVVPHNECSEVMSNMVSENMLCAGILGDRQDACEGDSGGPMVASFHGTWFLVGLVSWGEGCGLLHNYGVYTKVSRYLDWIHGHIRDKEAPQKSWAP
Sequence of activated protein C (APC) (P04070 43-197 limits assumed): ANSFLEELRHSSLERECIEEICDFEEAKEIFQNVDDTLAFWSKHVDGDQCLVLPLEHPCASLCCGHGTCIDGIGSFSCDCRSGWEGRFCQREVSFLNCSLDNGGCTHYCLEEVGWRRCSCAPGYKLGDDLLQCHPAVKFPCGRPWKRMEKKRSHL

Molecule | binding to C4BP [1] | Clotting Time [2] [s]
E424K variant: recombinant human protein S with Glu-424 replaced by Lys (protein) ANSLLEETKQGNLERECIEELCNKEEAREVFENDPETDYFYPKYLVCLRSFQTGLFTAARQSTNAYPDLRSCVNAIPDQCSPLPCNEDGYMSCKDGKASFTCTCKPGWQGEKCEFDINECKDPSNINGGCSQICDNTPGSYHCSCKNGFVMLSNKKDCKDVDECSLKPSICGTAVCKNIPGDFECECPEGYRYNLKSKSCEDIDECSENMCAQLCVNYPGGYTCYCDGKKGFKLAQDQKSCEVVSVCLPLNLDTKYELLYLAEQFAGVVLYLKFRLPEISRFSAEFDFRTYDSEGVILYAESIDHSAWLLIALRGGKIEVQLKNEHTSKITTGGDVINNGLWNMVSVEELEHSISIKIAKEAVMDINKPGPLFKPENGLLETKVYFAGFPRKVESELIKPINPRLDGCIRSWNLMKQGASGIKKIIQEKQNKHCLVTVEKGSYYPGSGIAQFHIDYNNVSSAEGWHVNVTLNIRPSTGTGVMLALVSGNNTVPFAVSLVDSTSEKSQDILLSVENTVIYRIQALSLCSDQQSHLEFRVNRNNLELSTPLKIETISHEDLQRQLAVLDKAMKAKVATYLGGLPDVPFSATPVNAFYNGCMEVNINGVQLDLDEAISKHNDIRAHSCPSVWKKTKNS | bound to C4BP with the same apparent affinity as the wild type recombinant molecule | 97
K432E variant: recombinant human protein S with Lys-432 replaced by Glu (protein) ANSLLEETKQGNLERECIEELCNKEEAREVFENDPETDYFYPKYLVCLRSFQTGLFTAARQSTNAYPDLRSCVNAIPDQCSPLPCNEDGYMSCKDGKASFTCTCKPGWQGEKCEFDINECKDPSNINGGCSQICDNTPGSYHCSCKNGFVMLSNKKDCKDVDECSLKPSICGTAVCKNIPGDFECECPEGYRYNLKSKSCEDIDECSENMCAQLCVNYPGGYTCYCDGKKGFKLAQDQKSCEVVSVCLPLNLDTKYELLYLAEQFAGVVLYLKFRLPEISRFSAEFDFRTYDSEGVILYAESIDHSAWLLIALRGGKIEVQLKNEHTSKITTGGDVINNGLWNMVSVEELEHSISIKIAKEAVMDINKPGPLFKPENGLLETKVYFAGFPRKVESELIKPINPRLDGCIRSWNLMKQGASGIKEIIQEKQNEHCLVTVEKGSYYPGSGIAQFHIDYNNVSSAEGWHVNVTLNIRPSTGTGVMLALVSGNNTVPFAVSLVDSTSEKSQDILLSVENTVIYRIQALSLCSDQQSHLEFRVNRNNLELSTPLKIETISHEDLQRQLAVLDKAMKAKVATYLGGLPDVPFSATPVNAFYNGCMEVNINGVQLDLDEAISKHNDIRAHSCPSVWKKTKNS | failed to bind to C4BP at concentrations up to 50 ng/ml | 
Q427E variant: recombinant human protein S with Gln-427 replaced by Glu (protein) ANSLLEETKQGNLERECIEELCNKEEAREVFENDPETDYFYPKYLVCLRSFQTGLFTAARQSTNAYPDLRSCVNAIPDQCSPLPCNEDGYMSCKDGKASFTCTCKPGWQGEKCEFDINECKDPSNINGGCSQICDNTPGSYHCSCKNGFVMLSNKKDCKDVDECSLKPSICGTAVCKNIPGDFECECPEGYRYNLKSKSCEDIDECSENMCAQLCVNYPGGYTCYCDGKKGFKLAQDQKSCEVVSVCLPLNLDTKYELLYLAEQFAGVVLYLKFRLPEISRFSAEFDFRTYDSEGVILYAESIDHSAWLLIALRGGKIEVQLKNEHTSKITTGGDVINNGLWNMVSVEELEHSISIKIAKEAVMDINKPGPLFKPENGLLETKVYFAGFPRKVESELIKPINPRLDGCIRSWNLMKQGASGIKEIIEEKQNKHCLVTVEKGSYYPGSGIAQFHIDYNNVSSAEGWHVNVTLNIRPSTGTGVMLALVSGNNTVPFAVSLVDSTSEKSQDILLSVENTVIYRIQALSLCSDQQSHLEFRVNRNNLELSTPLKIETISHEDLQRQLAVLDKAMKAKVATYLGGLPDVPFSATPVNAFYNGCMEVNINGVQLDLDEAISKHNDIRAHSCPSVWKKTKNS | bound to C4BP with the same apparent affinity as the wild type recombinant molecule | 94
I425A/I426A variant: recombinant human protein S with alanine in place of isoleucine at positions 425 and 426 (protein) ANSLLEETKQGNLERECIEELCNKEEAREVFENDPETDYFYPKYLVCLRSFQTGLFTAARQSTNAYPDLRSCVNAIPDQCSPLPCNEDGYMSCKDGKASFTCTCKPGWQGEKCEFDINECKDPSNINGGCSQICDNTPGSYHCSCKNGFVMLSNKKDCKDVDECSLKPSICGTAVCKNIPGDFECECPEGYRYNLKSKSCEDIDECSENMCAQLCVNYPGGYTCYCDGKKGFKLAQDQKSCEVVSVCLPLNLDTKYELLYLAEQFAGVVLYLKFRLPEISRFSAEFDFRTYDSEGVILYAESIDHSAWLLIALRGGKIEVQLKNEHTSKITTGGDVINNGLWNMVSVEELEHSISIKIAKEAVMDINKPGPLFKPENGLLETKVYFAGFPRKVESELIKPINPRLDGCIRSWNLMKQGASGIKEAAQEKQNKHCLVTVEKGSYYPGSGIAQFHIDYNNVSSAEGWHVNVTLNIRPSTGTGVMLALVSGNNTVPFAVSLVDSTSEKSQDILLSVENTVIYRIQALSLCSDQQSHLEFRVNRNNLELSTPLKIETISHEDLQRQLAVLDKAMKAKVATYLGGLPDVPFSATPVNAFYNGCMEVNINGVQLDLDEAISKHNDIRAHSCPSVWKKTKNS | failed to bind to C4BP at concentrations up to 50 ng/ml | 
